The text below walks through data of patent publication US11639389B2, “Binding molecules with modified J-chain” (IGM Biosciences, Inc., dated 2023).

In this assay the target is DR5 (TRAILR2) (Homo sapiens). Put plainly: cell-based or functional assay.

B1: anti-DR5 IgM+wt J-chain (antibody)
heavy: not shown
light: SSELTQDPAVSVALGQTVRITCQGDSLRSYYASWYQQKPGQAPVLVIYGKNNRPSGIPDRFSGSSSGNTASLTITGAQAEDEADYYCNSRDSSGNHVVFGGGTKLTVLGQPKAAPSVTLFPPSSEELQANKATLVCLISDFYPGAVTVAWKADSSPVKAGVETTTPSKQSNNKYAASSYLSLTPEQWKSHRSYSCQVTHEGSTVEKTVAPTECS
chain: not shown
Consider B1, for which the “cell viability of COLO205 cells after 24 hours (Cell-Titer Glo)” value was > 1000 fold, compared to the corresponding IgG.

B2: anti-DR5 IgM (without J-chain) (antibody, V domains shown)
VH: EVQLVQSGGGVERPGGSLRLSCAASGFTFDDYGMSWVRQAPGKGLEWVSGINWNGGSTGYADSVKGRVTISRDNAKNSLYLQMNSLRAEDTAVYYCAKILGAGRGWYFDLWGKGTTVTVSS
VL: SSELTQDPAVSVALGQTVRITCQGDSLRSYYASWYQQKPGQAPVLVIYGKNNRPSGIPDRFSGSSSGNTASLTITGAQAEDEADYYCNSRDSSGNHVVFGGGTKLTVLG
Turning to B2, the “cell viability of COLO205 cells after 24 hours (Cell-Titer Glo)” value is > 1000 fold, compared to the corresponding IgG.
